Reference: patent US20090175866A1, “TREATMENT OF B-CELL MALIGNANCIES” (priority 2004, published 2009)
Where a chain is given by its changes, count along the chain named.

B1: PRO-026: HuCAL anti-FGFR3 clone; VH-CDR3 SEQ ID NO:6, VL-CDR3 SEQ ID NO:15 (antibody, V domains shown)
VH: QVQLVQSGAEVKKPGASVKVSCKASGYTFTSYYMHWVRQAPGQGLEWMGWINPNSGGTNYAQKFQGRVTMTRDTSISTAYMELSSLRSEDTAVYYCARGYWYAYFTYINYGYFDNWGQGTLVTVSS
VL: DIALTQPASVSGSPGQSITISCTGTSSDVGGYNYVSWYQQHPGKAPKLMIYDVSNRPSGVSNRFSGSKSGNTASLTISGLQAEDEADYYCQSYDNNSDVVFGGGTKLTVLGQ
B2: PRO-055: HuCAL anti-FGFR3 clone; VH-CDR3 SEQ ID NO:9, VL-CDR3 SEQ ID NO:18 (antibody, V domains shown)
VH: QVQLVQSGAEVKKPGASVKVSCKASGYTFTSYYMHWVRQAPGQGLEWMGWINPNSGGTNYAQKFQGRVTMTRDTSISTAYMELSSLRSEDTAVYYCARSMNSTMYWYLRRVLFDHWGQGTLVTVSS
VL: B1 VL with N95M, N96Y, S97N, D98Y, V99I
B3: PRO-012: HuCAL anti-FGFR3 clone; VH-CDR3 SEQ ID NO:3, VL-CDR3 SEQ ID NO:12 (antibody, V domains shown)
VH: QVQLKESGPALVKPTQTLTLTCTFSGFSLSTSGVGVGWIRQPPGKALEWLALIDWDDDKYYSTSLKTRLTISKDTSKNQVVLTMTNMDPVDTATYYCARYHSWYEMGYYGSTVGYMFDYWGQGTLVTVSS
VL: DIELTQPPSVSVAPGQTARISCSGDALGDKYASWYQQKPGQAPVLVIYDDSDRPSGIPERFSGSNSGNTATLTISGTQAEDEADYYCQSYDFDFAVFGGGTKLTVLGQ
B4: PRO-054: HuCAL anti-FGFR3 clone; VH-CDR3 SEQ ID NO:8, VL-CDR3 SEQ ID NO:17 (antibody, V domains shown)
VH: QVQLVQSGAEVKKPGASVKVSCKASGYTFTSYYMHWVRQAPGQGLEWMGWINPNSGGTNYAQKFQGRVTMTRDTSISTAYMELSSLRSEDTAVYYCARNMAYTNYQYVNMPHFDYWGQGTLVTVSS
VL: B3 VL with F92Y, D93F, F94K, A95L
B5: PRO-029: HuCAL anti-FGFR3 clone; VH-CDR3 SEQ ID NO:7, VL-CDR3 SEQ ID NO:16 (antibody, V domains shown)
VH: QVQLVQSGAEVKKPGASVKVSCKASGYTFTSYYMHWVRQAPGQGLEWMGWINPNSGGTNYAQKFQGRVTMTRDTSISTAYMELSSLRSEDTAVYYCARTWQYSYFYYLDGGYYFDIWGQGTLVTVSS
VL: DIVLTQSPATLSLSPGERATLSCRASQSVSSSYLAWYQQKPGQAPRLLIYGASSRATGVPARFSGSGSGTDFTLTISSLEPEDFATYYCQQTNNAPVTFGQGTKVEIKRT
B6: PRO-002: HuCAL anti-FGFR3 clone; VH-CDR3 SEQ ID NO:2, VL-CDR3 SEQ ID NO:11 (antibody, V domains shown)
VH: QVQLVQSGAEVKKPGASVKVSCKASGYTFTSYYMHWVRQAPGQGLEWMGWINPNSGGTNYAQKFQGRVTMTRDTSISTAYMELSSLRSEDTAVYYCARDFLGYEFDYWGQGTLVTVSS
VL: DIELTQPPSVSVAPGQTARISCSGDALGDKYASWYQQKPGQAPVLVIYDDSDRPSGIPERFSGSNSGNTATLTISGTQAEDEADYYCQSYDYSADYVFGGGTKLTVLGQ

Each molecule was assayed against T1, FGFR3 (Homo sapiens, UniProt P22607) (assay: Affinity and Koff to FGFR3 measured by BIAcore).
T1 sequence (P22607 23-806): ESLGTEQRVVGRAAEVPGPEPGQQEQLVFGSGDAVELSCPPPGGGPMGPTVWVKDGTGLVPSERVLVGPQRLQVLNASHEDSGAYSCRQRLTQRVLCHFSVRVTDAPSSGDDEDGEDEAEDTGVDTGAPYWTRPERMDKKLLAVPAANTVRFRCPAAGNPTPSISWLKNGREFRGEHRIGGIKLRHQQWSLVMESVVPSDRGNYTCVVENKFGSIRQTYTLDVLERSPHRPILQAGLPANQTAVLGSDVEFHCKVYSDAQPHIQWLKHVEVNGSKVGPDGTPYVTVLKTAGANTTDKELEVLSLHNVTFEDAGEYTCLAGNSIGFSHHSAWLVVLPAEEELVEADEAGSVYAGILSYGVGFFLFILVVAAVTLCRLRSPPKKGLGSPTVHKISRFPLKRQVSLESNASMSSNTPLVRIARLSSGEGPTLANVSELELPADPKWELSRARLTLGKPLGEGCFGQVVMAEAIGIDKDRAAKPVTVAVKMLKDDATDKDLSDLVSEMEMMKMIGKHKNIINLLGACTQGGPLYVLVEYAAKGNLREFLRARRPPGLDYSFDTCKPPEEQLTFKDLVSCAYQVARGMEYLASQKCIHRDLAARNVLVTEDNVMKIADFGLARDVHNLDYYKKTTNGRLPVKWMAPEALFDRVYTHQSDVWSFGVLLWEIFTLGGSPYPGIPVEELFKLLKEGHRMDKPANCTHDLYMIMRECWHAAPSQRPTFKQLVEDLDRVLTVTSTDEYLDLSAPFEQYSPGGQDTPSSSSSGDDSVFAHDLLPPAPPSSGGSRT
Type: binding
B1 gave a Kd of 4 nM. Work on B2 yielded a Kd of 2.9 nM. Molecule B3 has a Kd of 14 nM. B4 was tested, and the Kd was 3.7 nM. Molecule B5 has a Kd of 6 nM. B6 gave a Kd of 37 nM.

Each molecule was assayed against T1, FGFR3 (assay: FGFR3 domain specificity of binding).
With B1 the “FGFR3 Domain Specificity” value was 3c. In the case of B2, the “FGFR3 Domain Specificity” value is reported as 3c. In the case of B3, the “FGFR3 Domain Specificity” value is reported as 2. With B4 the “FGFR3 Domain Specificity” value was 3c. B5 was tested, and the “FGFR3 Domain Specificity” value was 3c. B6 was tested, and the “FGFR3 Domain Specificity” value was 2.
